From the RNAGym collection of RNA variant scans (doi:10.7554/elife.90254) come the findings set out here.

B1: OR4K15 (parent)
chain: GUUAACGGUCAUAGGCCAUGGAAACUAGGAGCACCAUUUCGCUGCCAGUGAAGAAAUGAACAAAGAAAAUCUGGGCCAGGCAGGCAUCAAAAGAAAUAGUCUUGCGCUCAACCAGAAAGUCUGUAAUCAUUUUAAGGGUA

Variants of B1 are the subject of the series. The experiment in a line: self-cleavage, relative activity (ratio to wild type); higher = more cleavage; in vitro, sequencing; the parent is a self-cleaving ribozyme.
Consider GUUAACGGUCAUAGGCCAUGGAAACCUGGAGCACCAUUUCGCUGCCAGUGAAGAAAUGAACAAAGAAAAUCUGGGCCAGGCAGGCAUCAAAAGAAAUAGUCUUGCGCUCAACCAGAAAGUCUGUAAUCAUUUUAAGGGUA [U26C A27U], for which the self-cleavage came out at 1.2.

On to GUUAACGGUCAUAGGCCAUGGAAACCGGGAGCACCAUUUCGCUGCCAGUGAAGAAAUGAACAAAGAAAAUCUGGGCCAGGCAGGCAUCAAAAGAAAUAGUCUUGCGCUCAACCAGAAAGUCUGUAAUCAUUUUAAGGGUA [U26C A27G], for which the self-cleavage worked out at 0.75.

For the variant GUUAACGGUCAUAGGCCAUGGAAACAAGGAGCACCAUUUCGCUGCCAGUGAAGAAAUGAACAAAGAAAAUCUGGGCCAGGCAGGCAUCAAAAGAAAUAGUCCUGCGCUCAACCAGAAAGUCUGUAAUCAUUUUAAGGGUA [U26A U102C], the self-cleavage worked out at 1.69.

As for GUUAACGGUCAUAGGCCAUGGAAACCAGGAGCACCAUUUCGCUGCCAGUGAAGAAAUGAGCAAAGAAAAUCUGGGCCAGGCAGGCAUCAAAAGAAAUAGUCUUGCGCUCAACCAGAAAGUCUGUAAUCAUUUUAAGGGUA [U26C A60G], the self-cleavage came to 1.61.

Turning to GUUAACGGUCAUAGGCCAUGGAAACAAGGAGCACCAUUUCGCUGCCAGUGAAGAAAUGAACAAAGAAAAUCUGGGCCAGGCAGGCAUCAAAAGAAAUAGUCUUGCGCUCAACCAGAAAGUCUGUAAUCACUUUAAGGGUA [U26A U130C], the self-cleavage turned out to be 0.54.

As for GUUAACGGUCAUAGGCCAUGGAAACAAGGAGCACCAUUUCGCUGCCAGUGAAGAAAUGAACAAAGAAAAUCUGGGCCAGGCAGGCAUCAAAAGAAAUAGUCUUGCGCUCAACCAGAAAGUCUGUAAUCAUUCUAAGGGUA [U26A U132C], the self-cleavage came out at 0.9.

For the variant GUUAACGGUCAUAGGCCAUGGAAACCAGGAGCACCAUUUCGCUGCCAGUGAAGAAAUGAACAAAGAAAAUCUGGGCCAGGCAGGCAUCAAAAGAAAUAGUCUUGCGCUCAACCAGGAAGUCUGUAAUCAUUUUAAGGGUA [U26C A116G], the self-cleavage is 1.14.

Regarding GUUAACGGUCAUAGGCCAUGGAAACCAGGAGCACCAUUUCGCUGCCAGUGAAGAAAUGAACAAAGAAAAUCUGGGCCAGGCAGGCAUCAAAAGAAAUAGUCUUGCGCUCAACCAGAACGUCUGUAAUCAUUUUAAGGGUA [U26C A118C], the self-cleavage came to 0.51.

Turning to GUUAACGGUCAUAGGCCAUGGAAACCAGGAGCACCAUUUCGCUGCCAGUGAAGAAAUGAACUAAGAAAAUCUGGGCCAGGCAGGCAUCAAAAGAAAUAGUCUUGCGCUCAACCAGAAAGUCUGUAAUCAUUUUAAGGGUA [U26C A62U], the self-cleavage stood at 1.84.

Regarding GUUAACGGUCAUAGGCCAUGGAAACCAGGAGCACCAUUUCGCUGCCAGUGCAGAAAUGAACAAAGAAAAUCUGGGCCAGGCAGGCAUCAAAAGAAAUAGUCUUGCGCUCAACCAGAAAGUCUGUAAUCAUUUUAAGGGUA [U26C A51C], the self-cleavage turned out to be 1.55.

Take GUUAACGGUCAUAGGCCAUGGAAACCAGGAGCACCAUUUCGCUGCCAGUGUAGAAAUGAACAAAGAAAAUCUGGGCCAGGCAGGCAUCAAAAGAAAUAGUCUUGCGCUCAACCAGAAAGUCUGUAAUCAUUUUAAGGGUA [U26C A51U]: the self-cleavage is 1.69.

GUUAACGGUCAUAGGCCAUGGAAACAAGGAGCACCAUUUCGCUGCCAGUGAAGAAAUGAACAAAGAAAAUCUGGGCCAGGCAGGCAUCAAAAGAAAUAGUCUUGCGCUCAACCAGAAAGGCUGUAAUCAUUUUAAGGGUA [U26A U120G]: the self-cleavage was 1.26.

Regarding GUUAACGGUCAUAGGCCAUGGAAACCAGGAGCACCAUUUCGCUGCCAGUGAAGAAAUGAACAAAGAAAAUCUGGGCCAGGCAGGCAUCAAAAGAAGUAGUCUUGCGCUCAACCAGAAAGUCUGUAAUCAUUUUAAGGGUA [U26C A96G], the self-cleavage amounted to 1.5.

As to GUUAACGGUCAUAGGCCAUGGAAACCAGGAGCACCGUUUCGCUGCCAGUGAAGAAAUGAACAAAGAAAAUCUGGGCCAGGCAGGCAUCAAAAGAAAUAGUCUUGCGCUCAACCAGAAAGUCUGUAAUCAUUUUAAGGGUA [U26C A36G], the self-cleavage worked out at 1.47.

Regarding GUUAACGGUCAUAGGCCAUGGAAACCAGGAGCACCAUUUCGCUGCCAGUGAAGAAAUGAACAAAGAAAAUCUGGGCCAGGCAGGCAUCAGAAGAAAUAGUCUUGCGCUCAACCAGAAAGUCUGUAAUCAUUUUAAGGGUA [U26C A90G], the self-cleavage stood at 1.11.

On to GUUAACGGUCAUAGGCCAUGGAAACAAGGAGCACCAUUUCGCUGCCAGUGAAGAAAUGAACAAAGAAAAUCUGGGCCAGGCAGGCAUCAAAAGAAAUAGUCUUGCGCUCAACCAUAAAGUCUGUAAUCAUUUUAAGGGUA [U26A G115U], for which the self-cleavage was 0.13.

As to GUUAACGGUCAUAGGCCAUGGAAACAAGGAGCACCAUUUCGCUGCCAGUGAAGAAAGGAACAAAGAAAAUCUGGGCCAGGCAGGCAUCAAAAGAAAUAGUCUUGCGCUCAACCAGAAAGUCUGUAAUCAUUUUAAGGGUA [U26A U57G], the self-cleavage is 0.97.

Turning to GUUAACGGUCAUAGGCCAUGGAAACCAGGAGCACCAUUUCGCUGCCAGUGAAGAAAUGAACAAAGAAAAUCUGGGCCAGGCAGGCAUCGAAAGAAAUAGUCUUGCGCUCAACCAGAAAGUCUGUAAUCAUUUUAAGGGUA [U26C A89G], the self-cleavage was 1.35.

For GUUAACGGUCAUAGGCCAUGGAAACCAGGAGCACCAUUUCGCUGCCAGUGAAGAAAUGGACAAAGAAAAUCUGGGCCAGGCAGGCAUCAAAAGAAAUAGUCUUGCGCUCAACCAGAAAGUCUGUAAUCAUUUUAAGGGUA [U26C A59G], the self-cleavage is 0.96.

As for GUUAACGGUCAUAGGCCAUGGAAACCAGGCGCACCAUUUCGCUGCCAGUGAAGAAAUGAACAAAGAAAAUCUGGGCCAGGCAGGCAUCAAAAGAAAUAGUCUUGCGCUCAACCAGAAAGUCUGUAAUCAUUUUAAGGGUA [U26C A30C], the self-cleavage turned out to be 0.98.

With GUUAACGGUCAUAGGCCAUGGAAACCAGGUGCACCAUUUCGCUGCCAGUGAAGAAAUGAACAAAGAAAAUCUGGGCCAGGCAGGCAUCAAAAGAAAUAGUCUUGCGCUCAACCAGAAAGUCUGUAAUCAUUUUAAGGGUA [U26C A30U], the self-cleavage was 1.14.

As for GUUAACGGUCAUAGGCCAUGGAAACCAGGAGCACCAUUUCGCUGCCAGUGAAGAAAUGAACAAAGAAAAUCUGGGCCAGGCAGGCAUCAAAAGAAAUAGUCUUGCGCUCAACCUGAAAGUCUGUAAUCAUUUUAAGGGUA [U26C A114U], the self-cleavage is 0.07.

On to GUUAACGGUCAUAGGCCAUGGAAACCAGGAGCACCAUUUCGCUGCCAGUGAAGAAAUGAACAAAGAAGAUCUGGGCCAGGCAGGCAUCAAAAGAAAUAGUCUUGCGCUCAACCAGAAAGUCUGUAAUCAUUUUAAGGGUA [U26C A68G], for which the self-cleavage is 1.26.

Turning to GUUAACGGUCAUAGGCCAUGGAAACCAGGAGCACCAUUUCGCUGCCAGUGAAGAAAUGAACAAAGAAAAUCUGGGCCAGGCAGGCAUCAAAGGAAAUAGUCUUGCGCUCAACCAGAAAGUCUGUAAUCAUUUUAAGGGUA [U26C A92G], the self-cleavage was determined as 1.45.

Take GUUAACGGUCAUAGGCCAUGGAAACCAGGAGCACCAUUUCGCUGCCAGUGAAGAAAUGAACAAAGAAAAUCUGGGCCAGGCAGGCUUCAAAAGAAAUAGUCUUGCGCUCAACCAGAAAGUCUGUAAUCAUUUUAAGGGUA [U26C A86U]: the self-cleavage stood at 1.52.

Regarding GUUAACGGUCAUAGGCCAUGGAAACCAGGAGCACCAUUUCGCUGCCAGUGAAGAAAUGAACAAAGAAAAUCUGGGCCAGGCAGGCGUCAAAAGAAAUAGUCUUGCGCUCAACCAGAAAGUCUGUAAUCAUUUUAAGGGUA [U26C A86G], the self-cleavage worked out at 1.33.

On to GUUAACGGUCAUAGGCCAUGGAAACCAGGAGCACCAUUUCGCUGCCAGUGAAGAAAUGAACAAAGAAAAUCUGGGCCAGGCAGGCCUCAAAAGAAAUAGUCUUGCGCUCAACCAGAAAGUCUGUAAUCAUUUUAAGGGUA [U26C A86C], for which the self-cleavage came to 0.7.

For GUUAACGGUCAUAGGCCAUGGAAACAAGGAGCACCAUUUCGCUGCCAGUGAAGAAAUGAACAAAGAAAAUCUGGGCCAGGCAGGCAUCAAAAGAAAUAGACUUGCGCUCAACCAGAAAGUCUGUAAUCAUUUUAAGGGUA [U26A U100A], the self-cleavage amounted to 0.98.

For GUUAACGGUCAUAGGCCAUGGAAACCAGGAGCACCAUUUCGCUGCCAGUGAAGAAAUGAACAAAGAAAAUCUGGGCCAGGCUGGCAUCAAAAGAAAUAGUCUUGCGCUCAACCAGAAAGUCUGUAAUCAUUUUAAGGGUA [U26C A82U], the self-cleavage turned out to be 0.28.

Take GUUAACGGUCAUAGGCCAUGGAAACCAGGAGCACCAUUUCGCUGCCAGUGAAGAAAUGAACAAAGAAAAUCUGGGCCAGGCAGGCAUCAAAAGAAAUAGUCUUGCGCUCCACCAGAAAGUCUGUAAUCAUUUUAAGGGUA [U26C A110C]: the self-cleavage stood at 0.25.

Take GUUAACGGUCAUAGGCCAUGGAAACCAGGAGCACCAUUUCGCUGCCAGUGAAGAAAUGAACAAAGAAAAUCUGGGCCAGGCAGGCAUCAAAAGAAAUAGUCUUGCGCUCGACCAGAAAGUCUGUAAUCAUUUUAAGGGUA [U26C A110G]: the self-cleavage was 0.08.

As to GUUAACGGUCAUAGGCCAUGGAAACCAGGAGCACCAUUUCGCUGCCAGUGAAGAAAUGAACAAAGAAAAUCUGGGCCAGGCAGGCAUCAAAAGAAAUAGUCUUGCGCUCAACCAGAAAGUCUGUAUUCAUUUUAAGGGUA [U26C A126U], the self-cleavage turned out to be 1.29.

Consider GUUAACGGUCAUAGGCCAUGGAAACCAGGAGCACCAUUUCGCUGCCAGUGAAGAAAUGAACAAAGAAAGUCUGGGCCAGGCAGGCAUCAAAAGAAAUAGUCUUGCGCUCAACCAGAAAGUCUGUAAUCAUUUUAAGGGUA [U26C A69G], for which the self-cleavage came to 1.46.

On to GUUAACGGUCAUAGGCCAUGGAAACAAGGAGCACCAUUUCGCCGCCAGUGAAGAAAUGAACAAAGAAAAUCUGGGCCAGGCAGGCAUCAAAAGAAAUAGUCUUGCGCUCAACCAGAAAGUCUGUAAUCAUUUUAAGGGUA [U26A U43C], for which the self-cleavage is 1.45.

Consider GUUAACGGUCAUAGGCCAUGGAAACAAGGAGCACCAUUACGCUGCCAGUGAAGAAAUGAACAAAGAAAAUCUGGGCCAGGCAGGCAUCAAAAGAAAUAGUCUUGCGCUCAACCAGAAAGUCUGUAAUCAUUUUAAGGGUA [U26A U39A], for which the self-cleavage is 0.92.

As for GUUAACGGUCAUAGGCCAUGGAAACCAGGAGCACCAUUUCGCUGCCAGUGAAGAGAUGAACAAAGAAAAUCUGGGCCAGGCAGGCAUCAAAAGAAAUAGUCUUGCGCUCAACCAGAAAGUCUGUAAUCAUUUUAAGGGUA [U26C A55G], the self-cleavage was found to be 0.31.

GUUAACGGUCAUAGGCCAUGGAAACCAGGAGCACCAUUUCGCUGCCAGUGAAGAAGUGAACAAAGAAAAUCUGGGCCAGGCAGGCAUCAAAAGAAAUAGUCUUGCGCUCAACCAGAAAGUCUGUAAUCAUUUUAAGGGUA [U26C A56G]: the self-cleavage came to 1.43.

GUUAACGGUCAUAGGCCAUGGAAACCAGGAGCACCAUUUCGCUGCCAGUGAAGAAAUGAACAAAGAGAAUCUGGGCCAGGCAGGCAUCAAAAGAAAUAGUCUUGCGCUCAACCAGAAAGUCUGUAAUCAUUUUAAGGGUA [U26C A67G]: the self-cleavage was 1.81.

For the variant GUUAACGGUCAUAGGCCAUGGAAACCAGGAGCACCAUUUCGCUGCCAGUGAAGAAAUGAACAGAGAAAAUCUGGGCCAGGCAGGCAUCAAAAGAAAUAGUCUUGCGCUCAACCAGAAAGUCUGUAAUCAUUUUAAGGGUA [U26C A63G], the self-cleavage is 1.48.

Regarding GUUAACGGUCAUAGGCCAUGGAAACCAGGAGCACCAUUUCGCUGCCAGUGAAGGAAUGAACAAAGAAAAUCUGGGCCAGGCAGGCAUCAAAAGAAAUAGUCUUGCGCUCAACCAGAAAGUCUGUAAUCAUUUUAAGGGUA [U26C A54G], the self-cleavage was determined as 1.61.

With GUUAACGGUCAUAGGCCAUGGAAACAAGGAGCACCAUUUCGCUGCCAGUGAAGAAAUGAACAAAGAAAAUCAGGGCCAGGCAGGCAUCAAAAGAAAUAGUCUUGCGCUCAACCAGAAAGUCUGUAAUCAUUUUAAGGGUA [U26A U72A], the self-cleavage was found to be 0.28.
